Results published in US20100120171A1.

Experiments:
[1] = target: recombinant fragment of human VE-cadherin extracellular region, CAD 1-4 fragment (Asp48-Glu478, preceded by Met), SEQ ID NO: 4 (human) (UniProt P33151); assay: sandwich ELISA, BV9 capture, rabbit polyclonal detection; CAD1-4 at 10 ng/mL
[2] = target: recombinant fragment of human VE-cadherin extracellular region, CAD 1-4 fragment (Asp48-Glu478, preceded by Met), SEQ ID NO: 4 (human) (UniProt P33151); assay: sandwich ELISA, BV9 capture, rabbit polyclonal detection; CAD1-4 at 0.63 ng/mL; first replicate
[3] = target: recombinant fragment of human VE-cadherin extracellular region, CAD 1-4 fragment (Asp48-Glu478, preceded by Met), SEQ ID NO: 4 (human) (UniProt P33151); assay: sandwich ELISA, BV9 capture, rabbit polyclonal detection; CAD1-4 at 5 ng/mL; first replicate
[4] = target: recombinant fragment of human VE-cadherin extracellular region, CAD 1-4 fragment (Asp48-Glu478, preceded by Met), SEQ ID NO: 4 (human) (UniProt P33151); assay: sandwich ELISA, BV9 capture, rabbit polyclonal detection; CAD1-4 at 2.5 ng/mL; mean OD minus OD at 0 ng/mL
[5] = target: recombinant fragment of human VE-cadherin extracellular region, CAD 1-4 fragment (Asp48-Glu478, preceded by Met), SEQ ID NO: 4 (human) (UniProt P33151); assay: sandwich ELISA, BV9 capture, rabbit polyclonal detection; CAD1-4 at 5 ng/mL; second replicate
[6] = target: recombinant fragment of human VE-cadherin extracellular region, CAD 1-4 fragment (Asp48-Glu478, preceded by Met), SEQ ID NO: 4 (human) (UniProt P33151); assay: sandwich ELISA, BV9 capture, rabbit polyclonal detection; CAD1-4 at 2.5 ng/mL
[7] = target: recombinant fragment of human VE-cadherin extracellular region, CAD 1-4 fragment (Asp48-Glu478, preceded by Met), SEQ ID NO: 4 (human) (UniProt P33151); assay: sandwich ELISA, BV9 capture, rabbit polyclonal detection; CAD1-4 at 0.63 ng/mL
[8] = target: recombinant fragment of human VE-cadherin extracellular region, CAD 1-4 fragment (Asp48-Glu478, preceded by Met), SEQ ID NO: 4 (human) (UniProt P33151); assay: sandwich ELISA, BV9 capture, rabbit polyclonal detection; CAD1-4 at 0.63 ng/mL; second replicate
[9] = target: recombinant fragment of human VE-cadherin extracellular region, CAD 1-4 fragment (Asp48-Glu478, preceded by Met), SEQ ID NO: 4 (human) (UniProt P33151); assay: sandwich ELISA, BV9 capture, rabbit polyclonal detection; CAD1-4 at 1.25 ng/mL; mean OD minus OD at 0 ng/mL
[10] = target: circulating (soluble) human VE-cadherin, 90 kDa form, in human serum or plasma (human) (UniProt P33151); assay: western blot of healthy human serum diluted 1/500, BV9 tested from 0.02 to 1 µg/mL
[11] = target: recombinant fragment of human VE-cadherin extracellular region, CAD 1-4 fragment (Asp48-Glu478, preceded by Met), SEQ ID NO: 4 (human) (UniProt P33151); assay: sandwich ELISA, BV9 capture, rabbit polyclonal detection; CAD1-4 at 2.5 ng/mL; remark: listed apart in the source
[12] = target: recombinant fragment of human VE-cadherin extracellular region, CAD 1-4 fragment (Asp48-Glu478, preceded by Met), SEQ ID NO: 4 (human) (UniProt P33151); assay: sandwich ELISA, BV9 capture, rabbit polyclonal detection; CAD1-4 at 0.63 ng/mL; remark: listed apart in the source
[13] = target: recombinant fragment of human VE-cadherin extracellular region, CAD 1-4 fragment (Asp48-Glu478, preceded by Met), SEQ ID NO: 4 (human) (UniProt P33151); assay: sandwich ELISA, BV9 capture, rabbit polyclonal detection; CAD1-4 at 10 ng/mL; mean OD minus OD at 0 ng/mL
[14] = target: recombinant fragment of human VE-cadherin extracellular region, CAD 1-4 fragment (Asp48-Glu478, preceded by Met), SEQ ID NO: 4 (human) (UniProt P33151); assay: sandwich ELISA, BV9 capture, rabbit polyclonal detection; CAD1-4 at 10 ng/mL; second replicate
[15] = target: recombinant fragment of human VE-cadherin extracellular region, CAD 1-4 fragment (Asp48-Glu478, preceded by Met), SEQ ID NO: 4 (human) (UniProt P33151); assay: sandwich ELISA, BV9 capture, rabbit polyclonal detection; CAD1-4 at 5 ng/mL
[16] = target: recombinant fragment of human VE-cadherin extracellular region, CAD 1-4 fragment (Asp48-Glu478, preceded by Met), SEQ ID NO: 4 (human) (UniProt P33151); assay: sandwich ELISA, BV9 capture, rabbit polyclonal detection; CAD1-4 at 1.25 ng/mL; mean OD minus OD at 0 ng/mL; remark: listed apart in the source
[17] = target: recombinant fragment of human VE-cadherin extracellular region, CAD 1-4 fragment (Asp48-Glu478, preceded by Met), SEQ ID NO: 4 (human) (UniProt P33151); assay: sandwich ELISA, BV9 capture, rabbit polyclonal detection; CAD1-4 at 5 ng/mL; mean OD minus OD at 0 ng/mL
[18] = target: recombinant fragment of human VE-cadherin extracellular region, CAD 1-4 fragment (Asp48-Glu478, preceded by Met), SEQ ID NO: 4 (human) (UniProt P33151); assay: sandwich ELISA, BV9 capture, rabbit polyclonal detection; CAD1-4 at 1.25 ng/mL; second replicate
[19] = target: recombinant fragment of human VE-cadherin extracellular region, CAD 1-4 fragment (Asp48-Glu478, preceded by Met), SEQ ID NO: 4 (human) (UniProt P33151); assay: sandwich ELISA, BV9 capture, rabbit polyclonal detection; CAD1-4 at 5 ng/mL; mean OD minus OD at 0 ng/mL; remark: listed apart in the source
[20] = target: recombinant fragment of human VE-cadherin extracellular region, CAD 1-4 fragment (Asp48-Glu478, preceded by Met), SEQ ID NO: 4 (human) (UniProt P33151); assay: sandwich ELISA, BV9 capture, rabbit polyclonal detection; CAD1-4 at 1.25 ng/mL

anti-VEcadherin mouse mAb, clone BV9 (Abcam, product datasheet ab7047) (antibody)
mean OD [1]: 1.95 OD | OD [2]: 0.975 OD | OD [3]: 1.34 OD | Corr. OD [4]: 0.282 OD | OD [5]: 1.45 OD | OD1 [6]: 0.988 OD | OD2 [6]: 0.985 OD | mean OD [6]: 0.987 OD | OD1 [7]: 0.794 OD | OD2 [7]: 0.789 OD | mean OD [7]: 0.792 OD | OD [8]: 0.899 OD | Corr. OD [9]: 0.116 OD | lowest mAb concentration giving detection [10]: 0.02 µg/mL | mAb concentration at signal plateau [10]: 0.1 to 1 µg/mL | mean OD [11]: 1.17 OD | mean OD [12]: 0.937 OD | Corr. OD [13]: 1.06 OD | OD [14]: 2 OD | mean OD [15]: 1.4 OD | Corr. OD [16]: 0.143 OD | Corr. OD [17]: 0.556 OD | OD [18]: 0.932 OD | Corr. OD [19]: 0.512 OD | mean OD [20]: 1 OD
